In patent US20110293610A1 (published 2011):
Residue numbers refer to the chain shown, from its start.

B1: I079F06 (scFv)
scFv: QVQLVESGGGLVQPGGSLRLSCAASGFTFSSYWMSWVRQAPGKGLEWVANIKQDGSEKYYVDSVKGRFTISRDNAKNSLYLQMNSLRAEDTAVYYCARDNLHAAFDIWGRGTLVTVSGGGGGSGGGGSGGGGSDIQMTQSPSTLSASIGDRVTITCRASEGIYHWLAWYQQKPGKAPKLLIYKASSLASGAPSRFSGSGSGTDFTLTISSLQPDDFATYYCQQYSNYPLTFGGGTKLEIKR
B2: I082G01 (scFv)
scFv: QMQLVQSGAEVKKPGASVKVSCKASGYTFTSYYMHWVRQAPGQGLEWMGLVHPNDGSVNYAQKFKGRVTMTRDTSTSTVYMELSSLRSDDTAVYYCARDRGSGWPNWYFDLWGQGTLVTVSSGGGGSGGGGSGGGGSDIQMTQSPSTLSASIGDRVTITCRASEGIYHWLAWYQQKPGKAPKLLIYKASSLASGAPSRFSGSGSGTDFTLTISSLQPDDFATYYCQQYSNYPLTFGGGTKLEIKH
B3: I082B08 (scFv)
scFv: QVQLVQSGAEVKKPGGSVKVSCKASAYTFTRYYMHWVRQAPGQGLEWMGIINPSGGRTSYAQKFQGRVTMTRDTSTSTVYMELSSLRSEDTAVYYCARDLGIAGTIYFDYWGKGTLVTVSSGGGGSGGGGSGGGGSQSVLTQPPSVSAAPGQKVTISCSGSTSNIGNNYVSWYQQHPGKAPKLMIYDVSKRPSGVPDRFSGSKSGNSASLDISGLQSEDEADYYCAAWDDSLSEFLFGTGTKLTVLG
B4: I080D03 (scFv)
scFv: QVQLVQSGAELKQPGTSVKVSCKASGYSFSSYGVTWVRQAPGQGLEWMGWVSGNRGNTQYAQKFQDRVRMTTDTSTSTAYMELRSLRPDDTAVYFCARVGIKAAAVDNFEYWGRGTTVTVSSGGGGSGGGGSGGGGSAQSVLTQPPSASGTPGQRVTITCSGSSSNIGDYYVNWYQQVSGTTPKLIIYRDDQRPSGVPDRFSGSKSGASASLAISGLRSEDEANYFCAAWDDSLREFAFGTGTKVTVLG
B5: I080A03 (scFv)
scFv: QVQLQQSGAELKQPGTSVKVSCKASGYSFSCYDVNWVRQAPGQGLEWMGRINPNSGNTHYAQKFQDRVTMTTDTSTSTAYMELNSLRPDDTAVYFCARVGIKAAAVDNFEYWGRGTTVTVSSGGGGSGGGGSGGGGSAQSVLTQPPSASGTPGQRVTITCSGSSSNIGDYYVNWYQQVSGTTPKLIIYRDDQRPSGVPDRFSGSKSGASASLAISGLRSEDEANYFCAAWDDSLREFAFGTGTKVTVLG
B6: I083G03 (scFv)
scFv: B4 scFv with A92D
B7: I080B01 (scFv)
scFv: QVQLVQSGAEVKKPGASVKVSCKASGYTFTNYYMHWVRQAPGQGLEWMGIINPRDVSTTYAQKFQGRATMTRDTSTSTVYMELNSLRSEDTAVYYCAREYSGYHYVEGGSYAMDVWGQGTMVTVSSGGGGSGGGGSGGGGSALSYVLTQPPSASGTPGQRVTITCSGSSSNIGNYYVNWYQQVSGTAPKLIIYRNNQRPSGVPDRFSGSKSGASASLAISGLRSEDEADYFCAAWDDSLREFVFGTGTKVTVLG
B8: I079B05 (scFv)
scFv: GVQLVESGGGLVKPGGSLRLSCATSGFRFSDYAMTWVRQAPGKGLEWVSSITGSGGGTHYAGSVRGRFTISRDNSKNTVYLQMNNLRPEDTAVYYCASFVLDYWGKGTLVTVSSGGGGSGGGGSGGGGSQSVLTQPASVSGSPGQSITISCTGTSSDVGGYNYVSWYQQHPGKAPKLMIYEGSKRPSGVSNRFSGSKSGNTASLTISGLQAEDEADYYCSSYTTRSTRVFGGGTKLTVLG
B9: I084B02 (scFv)
scFv: QVQLVQSGGGLVQPGGSLRLSCAASGFTFSSYEMNWVRQAPGKGLEWVSYISSSGSTTYYADSVKGRFTISRDNAKNSLYLQMNSLRAEDTAVYYCARDTTDYWGQGTLVTVSSGGGGSGGGGSGGGGSDIVMTQSPSTLSASVGDRVTITCRASQGISSWLAWYQQKPGRAPKVLIYKASTLESGVPSRFSGSGSGTDFTLTISSLQPEDFATYYCQQSYSTPWTFGQGTKLEIKR
B10: I082A05 (scFv)
scFv: QVQLQQSGGGVVQPGRSLRLSCAASGFTYSSYAMHWVRQAPGKGLEWVAVISYDGSIKYYADSVKGRFTISRDNSKNTLYLQMNSLRAEDTAVYYCARDLDFDYWGKGTLVTVSSGGGGSGGGGSGGGGSQSVLTQPPSVSAAPGQKVTISCSGSTSNIGNNYVSWYQQHPGKAPKFMIYDVSKRPSGVSNRFSGSKSGNTASLTISGVQAEDEADYYCSSYTSASTVIFGGGTKLTVLG
B11: I083B12 (scFv)
scFv: QVQLVQSGAEVKKPGASVKVSCKASEYTFYNHYMHWVRQAPGQGLEWMGFINPSGDAAWYAQKFQGRVTLTRDTSTRTVYMELSGLTSEDTAVYYCARESGAGGYYYDDYWGKGTLVTVSSGGGGSGGGGSGGGGSALSYVLTQPPSVSVAPGKTASIPCGGNNIGSKSVQWYLQKAGQAPILVVYDDSDRPSGIPERFSGSNSGNTATLTITRVEAGDEADYYCQVWDSSSDHWFFGGGTKLTVLG
B12: I079C01 (scFv)
scFv: EVQLVESGGGLVQPGGSLRLSCAASGFTFSDYGMHWVRQRPGKGLEWIAFIGSDGSNKYYGDTVKGRFTISRDNAKNSLYLQMNSLRAEGTAVYYCARDWDMDVWGQGTMVTVSSGGGGSGGGGSGGGGSHVILTQPRSVSGSPGQSVTISCTGTSSDVGGYHYVSWYQQHPGKAPRLMIYEVTKRPSGVSNRFSGSKSGNTASLTISGVQAEDEADYYCSSYTSASTVIFGGGTKLTVLG
B13: I079F08 (scFv)
scFv: QMQLVQSGGGVVQPGRSLRLSCAASGFTFSSYGMHWVRQAPGKGLEWVAVISYDGSIKYYADSVKGRFTISRDNSKNTLYLQMNSLRAEDTAVYYCARYYYHSSGSDAFDIWGQGTLVTVPSGGGGSGGGGSGGGGSQSVLTQPPSASGTPGQRVTISCSGSSSNIGSNTVNWYQRLPGAAPQLLIYNNNQRPSGVPDRFSGSKSGTSASLAISGLQSEDEADYYCAAWDDSLNGWVFGGGTKLTVLG
B14: I079B12 (scFv)
scFv: EVQLVQSRGGVVQPGRSLRLSCAASGLTFSSYGMHWVRQAPGKGLEWVAVISYDGRNKYYADSVKGRFTTSRDNSKNTLYLQMNSLRAEDTAVYYCAKWTSSGAFDIWGRGTLVTVSSGGGGSGGGGSGGGGSDIQMTQSPSTLSASIGDRVTITCRASEGIYHWLAWYQQKPGKAPKLLIYKASSLASGAPSRFSGSGSGTDFTLTISSLQPDDFATYYCHQYSNYPLTFGGGTKLEIKR
B15: I082D07 (scFv)
scFv: B14 scFv with H222Q
B16: I084C04 (scFv)
scFv: VQLVQSGAEVKKPGASVKVSCKASGYTFTSYGISWVRQAPGQGLEWMGWINPNSGGTNYAQKFQGRVTMTRDTSISTAYMELSRLRSDDTAVYYCARNLWGLDYWGKGTMVTVSSGGGGSGGGGSGGGGSSELTQDPAVSVALGQTVRITCQGDSLRSYYASWYQQKPGQAPVLVIYGKNNRPSGIPDRFSGSSSGNTASLTITGAQAEDEADYYCNSRDSSGNHVVFGGGTKLTVLG
B17: I084A01 (scFv)
scFv: QVQLVQSGGGLVQPGGSLRLSCAASGFTFSSYEMNWVRQAPGKGLEWVSYISSSGSTTYYADSVKGRFTISRDNAKNSLYLQMNSLRAEDTAVYYCARDTTDYWGQGTMVTVSSGGGGSGGGGSGGGGSQSVLTQPPSASGTPGQRVTISCSGSSSNIGSNTVNWYQRLPGAAPQLLIYNNDQRPSGIPDRFSGSKSGTSGSLVISGLQSEDEADYYCASWDDSLNGRVFGGGTKLTVLG
B18: I080E05 (scFv)
scFv: EVQLVQSGAAVKKPGASVKVSCKASGYTFTTYYIHWVRQAPGQGLEWMGIINPVNGNTIYAQKFQGRVTMTRDTSTGTVNMELSSLRSEDTAVFYCVREGGGDAYDVAPYYFDYWGQGTLVTVSSGGGGSGGGGSGGGGSAQAVLTQPSSVSGAPGQRVTISCTGSSSNIGDGYDVHWYQQLPGTAPKLLIYGNSHRPSGVPDRFSGSKSDTSASLAITGLQVEDEADYFCHSYDSSVSGWIFGGGTKLTVLG
B19: I080G09 (scFv)
scFv: QVQLVQSGAEVKKPGASVRVSCKSSGYTFTNYGISWVRQAPGQGLEWMGWISNNNGKTYYAQKVQGRVTMTTDTSTSTDYMELRGLRSDDTAIYYCARDNGGGTIGFDYWGQGTLVTVSSGGGGSGGGGSGGGGSAQSVLTQPPSVSGAPGQRVTISCTGSSSNIGADYDVHWYQLLPGTAPKLLIYGNTNRPSGVPDRFSGSKSGTSASLTIAGLQAEDEADYYCQSYDSSLSGSVVFGGGTKLTVLG

Target: T1, HIS-tagged B Lymphocyte Stimulator (human, UniProt Q9Y275 71-285)
T1 construct: Expressed in E. coli; also called HIS-B Lymphocyte Stimulator; histidine-tagged B Lymphocyte Stimulator; not shown: histidine tag from the pQE9 vector
Assay: BIAcore, periplasmic scFv over high density HIS-BLyS surface
Procedure: All BIAcore analysis was performed on BIAcore 2000 machines, using the BIAcore 2000 control software and evaluated using the BIAevaluation 3.0 software. A high density His-tagged B Lymphocyte Stimulator surface (>1000 RU HIS-B Lymphocyte Stimulator coupled) was prepared in flow cell 2 by amine coupling to a CM5 chip. A new CM5 chip was inserted into the BIAcore and a sensorgram started over flow cell 2 with HBS buffer at a flow rate of 5 μl/min. The NHS and EDC solution were mixed 1:1 before injecting 30 μl over the CM5 surface. Fifty μl HIS-B Lymphocyte Stimulator (at 10 μg/ml in Sodium acetate buffer, pH4) was injected and allowed to couple to the surface. Thirty μl of ethanolamine-HCl solution was then injected to block free NHS esters. Prior to using the chip, 10 μl of 4M Guanidine hydrochloride in HBS was injected over the surface to strip the surface of non-covalently bound B Lymphocyte Stimulator. A blank surface (no HIS-B Lymphocyte Stimulator) was also prepared over flow cell 1 so that non-specific binding effects can be subtracted from the HIS-B Lymphocyte Stimulator binding curves.
The 96-well plate containing periplasmic scFvs was secured inside the BIAcore. Two ml of 4M Guanidine hydrochloride in HBS was placed in a rack inside the BIAcore for regeneration of the HIS-B Lymphocyte Stimulator surface between samples. The sensorgram was run over flow cells 1 and 2 at a flow rate of […].

T1 sequence (Q9Y275 71-285): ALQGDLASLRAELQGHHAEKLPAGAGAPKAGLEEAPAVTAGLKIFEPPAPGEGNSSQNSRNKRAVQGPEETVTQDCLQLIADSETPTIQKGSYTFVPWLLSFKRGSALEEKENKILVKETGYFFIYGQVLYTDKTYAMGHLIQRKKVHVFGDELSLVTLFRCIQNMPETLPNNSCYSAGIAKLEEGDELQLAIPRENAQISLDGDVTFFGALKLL

Row | binding result | Binder
1 | binds | B1
2 | binds | B2
3 | binds | B3
4 | binds | B4
5 | binds | B5
6 | binds | B6
7 | binds | B7
8 | binds | B8
9 | binds | B9
10 | binds | B10
11 | binds | B11
12 | binds | B12
13 | binds | B13
14 | binds | B14
15 | binds | B15
16 | binds | B16
17 | binds | B17
18 | binds | B18
19 | binds | B19
